Results on 2 molecules are retold here after patent US20140223606, “COMPOSITIONS AND METHODS COMPRISING SEQUENCES HAVING MEGANUCLEASE ACTIVITY” (PIONEER HI BRED INTERNATIONAL INC, published 2014).

Numbering of substitutions follows the chain as printed.

Common to all, as to conditions: tags: NLS, 6xHis
The target of data set [1] is T1, ZM6.3(G6) (artificial).
T1 chain: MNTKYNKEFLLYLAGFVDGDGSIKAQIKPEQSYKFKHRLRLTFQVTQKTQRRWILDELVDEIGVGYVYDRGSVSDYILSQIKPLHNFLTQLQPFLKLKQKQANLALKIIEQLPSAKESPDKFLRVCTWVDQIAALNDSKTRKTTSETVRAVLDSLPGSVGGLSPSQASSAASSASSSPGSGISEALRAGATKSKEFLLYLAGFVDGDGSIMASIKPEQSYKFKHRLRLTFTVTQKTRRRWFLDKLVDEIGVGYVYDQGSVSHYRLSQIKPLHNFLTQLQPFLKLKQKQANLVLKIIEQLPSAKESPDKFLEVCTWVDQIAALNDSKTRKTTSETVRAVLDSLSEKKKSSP
The experiment in a line: cell_activity; yeast 37 C; 28 C: 4. As for the experimental part:
(§1) A 3 mL culture of selective media (MP Biomedical) was inoculated with a single colony of the yeast screening strain and grown at 30° C. overnight. On the following day, a 50 ml YPD culture (MP Biomedical) was started with 2 ml of the overnight culture and grown at 30° C. overnight. On the following day, the cells were harvested by centrifugation at 4000 rpm. The cells were resuspended in 100 ml ice cold water and centrifuged again. The cells were then washed in 1.2 M sorbitol, followed by treatment with 2 ml of 10 mM Tris pH 8.0, 1 mM EDTA, 100 mM Lithium acetate, 10 mM DTT, 0.6M sorbitol for 30 minutes at 30° C. with shaking. The cells were recovered by centrifugation, washed in 40 ml 1.2M sorbitol and finally resuspended in 250 microliters of 1.2M sorbitol. 50 microliter aliquots were transferred to test tubes on ice. Up to 5 microliters of DNA (100-500 nanograms) were added. The suspension was transferred to a 0.2 cm electroporation cuvette, on ice. Electroporation was performed with a pulse charge at 1.5 kV, 200 ohms, 25 microF (pulse time of 5 milliseconds). 1 mL YPD media (MP Biomedical) was added and the cells were allowed to recover at 30° C. for 1-2 hr. The cells were centrifuged, resuspended in 100 uL 1M sorbitol and plated on selective media lacking leucine and containing 2% galactose. The resulting yeast colonies were incubated at various temperatures ranging from 22 to 37 degrees Celsius for 7-10 days. I-CreI and meganucleases derived from it have maximal activity at or above 37 degrees Celsius. Screening was performed at a range of temperatures from 22 to 37 degrees in order to observe increases in activity at lower temperatures which are relevant to certain biological systems (eg. plant cells, plant cell cultures, etc). At that time the red/white sectoring phenotype, indicative of meganuclease activity was observed. Colonies with increased white sectoring over the parental meganuclease (indicating colonies expressing a meganuclease with increased meganuclease activity), also referred to as “hits” and sometimes completely white, were isolated for further analysis.
(§2) A total of 15 Zm6.3 variants with increased activity were confirmed in the yeast system (as described in Example 6). Increased activity was observed across a range of temperatures: 28 degrees Celsius, 30 degrees Celsius and 37 degrees Celsius, as shown in Table 15.

Data set [2] deals with T2, ZM6.3(G1) (artificial).
T2 chain: T1 chain with S32R, Q50R, E57K, Q80R, A105V, R124E, R237Q
The experiment in a line: cell_activity; yeast 37 C; 28 C: 4. As for the experimental part:
as §1, §2

Data set [3] deals with T3, ZM6.3(H5) (artificial).
T3 chain: T1 chain with Y12H, E57K, R237Q
The experiment in a line: cell_activity; yeast 37 C; 28 C: 4. As for the experimental part: as §1, §2

For data set [4], the target named is T4, ZM6.3(H6) (artificial).
T4 chain: T1 chain with Y12H, S32R, E57K, A105V, R124E, R237Q
As to the kind of experiment: cell_activity; yeast 37 C; 28 C: 4. As to the method:
as §1, §2

Data set [5] has as its target T5, ZM6.22v2(I3) (artificial).
T5 chain: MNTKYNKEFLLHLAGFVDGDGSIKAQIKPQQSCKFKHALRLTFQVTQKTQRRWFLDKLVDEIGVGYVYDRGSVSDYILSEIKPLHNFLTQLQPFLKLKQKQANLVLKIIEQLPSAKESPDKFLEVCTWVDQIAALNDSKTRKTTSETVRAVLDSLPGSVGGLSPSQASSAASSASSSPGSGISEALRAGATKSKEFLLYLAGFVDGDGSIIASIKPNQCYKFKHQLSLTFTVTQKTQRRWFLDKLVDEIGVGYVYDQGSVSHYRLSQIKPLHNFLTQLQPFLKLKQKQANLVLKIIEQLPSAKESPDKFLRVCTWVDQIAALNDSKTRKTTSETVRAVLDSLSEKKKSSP
As to the kind of experiment: cell_activity; yeast 37 C; 30 C: 0. As for the experimental part:
as §1
A total of 13 ZM6.22v2 variants with increased activity were confirmed in the yeast system (as described in Example 6). Increased activity was observed across a range of temperatures: 28 degrees Celsius, 30 degrees Celsius and 37 degrees Celsius, as shown in Table 16.

B1: ZM6.3 recognition site (dsDNA)
DNA 1: CAGGCTCTCGTAAATGCGCCTG
DNA 2: CAGGCGCATTTACGAGAGCCTG
In the case of B1, the activity in data set [1], in data set [2], in data set [3] and in data set [4] was 4 score 0-4 each time.

B2: ZM6.22v2 recognition site (dsDNA)
DNA 1: ATTGCTCTCTCACATACTTTTA
DNA 2: TAAAAGTATGTGAGAGAGCAAT
For the molecule B2, the activity in data set [5] worked out at 2 score 0-4.
